Assays:
HsMBD2 MBD [1] = target: T1, HsMBD2 MBD (Homo sapiens, UniProt Q9UBB5 150-214); assay: SPR; steady state; Rmax 6.0; SPR: 10 mM HEPES pH 7.4, 50 mM NaCl, 3 mM MgCl2, 0.1 mM EDTA, 1 mM DTT, 0.05% polysorbate 20, temperature not stated; NMR conditions not in material; conditions: protein: recombinant; blunt
HsMBD2 MBD [2] = target: T1, HsMBD2 MBD; assay: SPR; steady state; Rmax 0.93; SPR: 10 mM HEPES pH 7.4, 50 mM NaCl, 3 mM MgCl2, 0.1 mM EDTA, 1 mM DTT, 0.05% polysorbate 20, temperature not stated; NMR conditions not in material; conditions: protein: recombinant; blunt

T1 sequence (Q9UBB5 150-214): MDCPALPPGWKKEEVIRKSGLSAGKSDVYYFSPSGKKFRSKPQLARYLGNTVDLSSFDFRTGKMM

Binder | Kd (HsMBD2 MBD [1]) | Kd (HsMBD2 MBD [2])
CpG(x3) 17 bp, 3'-biotin (dsDNA) DNA 1: GAGGCGCTCGGCGGCAG DNA 2: CTGCCGCCGAGCGCCTC | 81.7 µM | 
mCpG 17 bp, 3'-biotin (dsDNA, 5-methyl-C at C9 of strand 1 and C8 of strand 2 (central CpG); two other CpGs unmethylated) DNA 1: GAGGCGCTCGGCGGCAG DNA 2: CTGCCGCCGAGCGCCTC |  | 0.33 µM

From paper PMC5240623, “Methylation specific targeting of a chromatin remodeling complex from sponges to humans”
